In PMC3765947 (Current Biology, 2012) one finds Kd and dH data, which are given here for 1 molecule.

This assay deals with purified FMNL2 N terminus (FMNL2N, aa 2-379) (human (from the printed UniProt …, UniProt Q96PY5-3 2-379)). Description: ITC. Background: Isothermal titration calorimetry measures the heat released or taken up as one component is titrated into another.
Sequence of purified FMNL2 N terminus (FMNL2N, aa 2-379) (human (Q96PY5 2-379): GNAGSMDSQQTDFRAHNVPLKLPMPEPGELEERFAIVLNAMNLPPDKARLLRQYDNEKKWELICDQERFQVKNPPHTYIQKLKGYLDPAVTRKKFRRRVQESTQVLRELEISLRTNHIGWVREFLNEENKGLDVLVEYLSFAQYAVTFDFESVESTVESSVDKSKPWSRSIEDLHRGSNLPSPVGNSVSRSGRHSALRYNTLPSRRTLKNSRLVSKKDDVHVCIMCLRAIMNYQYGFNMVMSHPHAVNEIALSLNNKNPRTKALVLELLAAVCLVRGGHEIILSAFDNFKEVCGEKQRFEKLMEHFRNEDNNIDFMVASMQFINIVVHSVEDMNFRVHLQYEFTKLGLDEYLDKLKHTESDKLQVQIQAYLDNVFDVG

B1: Cdc42 (nucleotide-loaded, for ITC) (natural protein)
chain: not shown
Turning to B1, the Kd (commonly the constant that tells how readily two partners part at equilibrium) came out at 3.13 ± 0.38 µM and the dH is -5.33 ± 0.16 kcal/mol.
